The values that follow come from publication PMC9637222 (2022).

Common to all, as to test: ITC
Test [1] addresses T1, SipC (tag-free, purified) (S. Typhimurium, UniProt P0CL47 1-409).
T1 chain: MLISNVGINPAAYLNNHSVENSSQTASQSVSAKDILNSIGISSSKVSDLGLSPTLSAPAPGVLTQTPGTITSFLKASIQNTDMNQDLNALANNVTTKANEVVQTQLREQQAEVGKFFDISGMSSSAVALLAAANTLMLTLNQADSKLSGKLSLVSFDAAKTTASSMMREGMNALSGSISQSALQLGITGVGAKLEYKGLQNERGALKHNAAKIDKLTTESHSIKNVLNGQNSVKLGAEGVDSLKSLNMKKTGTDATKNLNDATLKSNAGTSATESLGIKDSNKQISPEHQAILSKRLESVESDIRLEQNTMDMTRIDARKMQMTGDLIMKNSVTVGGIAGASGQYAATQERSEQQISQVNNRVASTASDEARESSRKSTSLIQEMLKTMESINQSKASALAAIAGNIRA

For test [2], the target named is T2, InvF (tag-free, purified) (S. Typhimurium, UniProt P69343 1-216).
T2 chain: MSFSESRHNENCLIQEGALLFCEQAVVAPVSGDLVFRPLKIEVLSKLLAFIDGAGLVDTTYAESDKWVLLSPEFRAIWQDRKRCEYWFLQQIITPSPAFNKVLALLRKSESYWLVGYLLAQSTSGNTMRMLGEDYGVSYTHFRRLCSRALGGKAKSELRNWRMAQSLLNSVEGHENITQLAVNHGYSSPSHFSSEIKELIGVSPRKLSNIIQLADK

Test [3] deals with T3, SipB (tag-free, purified) (S. Typhimurium, UniProt Q56019 1-593).
T3 chain: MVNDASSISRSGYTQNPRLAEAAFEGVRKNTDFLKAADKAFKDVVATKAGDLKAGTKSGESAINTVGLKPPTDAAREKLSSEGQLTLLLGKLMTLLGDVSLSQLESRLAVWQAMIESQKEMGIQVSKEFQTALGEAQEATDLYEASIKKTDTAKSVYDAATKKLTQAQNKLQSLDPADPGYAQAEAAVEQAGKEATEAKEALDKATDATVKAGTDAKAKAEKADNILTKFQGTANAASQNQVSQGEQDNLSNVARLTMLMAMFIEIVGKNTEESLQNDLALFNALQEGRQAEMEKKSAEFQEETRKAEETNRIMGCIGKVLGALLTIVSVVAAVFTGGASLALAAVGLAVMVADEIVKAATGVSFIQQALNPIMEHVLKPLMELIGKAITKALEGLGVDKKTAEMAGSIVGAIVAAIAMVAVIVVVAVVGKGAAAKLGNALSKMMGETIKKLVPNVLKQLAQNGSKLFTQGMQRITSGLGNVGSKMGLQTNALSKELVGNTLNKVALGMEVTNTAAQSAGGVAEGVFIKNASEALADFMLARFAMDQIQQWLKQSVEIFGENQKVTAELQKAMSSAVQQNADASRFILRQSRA

B1: SicA (tag-free, purified) (natural protein)
chain: MDYQNNVSEERVAEMIWDAVSEGATLKDVHGIPQDMMDGLYAHAYEFYNQGRLDEAETFFRFLCIYDFYNPDYTMGLAAVCQLKKQFQKACDLYAVAFTLLKNDYRPVFFTGQCQLLMRKAAKARQCFELVNERTEDESLRAKALVYLEALKTAETEQHSEQEKE
Turning to B1, the Kd in test [1] was found to be 610 nM; in test [2], 460 nM; in test [3], 530 nM.
